Reference: IntAct's records for PubMed 20638386

B1: Tubulin-folding cofactor A (Arabidopsis thaliana (Mouse-ear cress)), O04350 (parent)
chain: MATIRNLKIKTSTCKRIVKELHSYEKEVEREAAKTADMKDKGADPYDLKQQENVLGESRMMIPDCHKRLESALADLKSTLAELEETDEKEGPEIEDAKKTVADVEKQFPTEDA

Variants of: B1
Conditions: with tbb9_arath TUBB9, P29517
tbb9_arath TUBB9, P29517, sequence (P29517 whole entry): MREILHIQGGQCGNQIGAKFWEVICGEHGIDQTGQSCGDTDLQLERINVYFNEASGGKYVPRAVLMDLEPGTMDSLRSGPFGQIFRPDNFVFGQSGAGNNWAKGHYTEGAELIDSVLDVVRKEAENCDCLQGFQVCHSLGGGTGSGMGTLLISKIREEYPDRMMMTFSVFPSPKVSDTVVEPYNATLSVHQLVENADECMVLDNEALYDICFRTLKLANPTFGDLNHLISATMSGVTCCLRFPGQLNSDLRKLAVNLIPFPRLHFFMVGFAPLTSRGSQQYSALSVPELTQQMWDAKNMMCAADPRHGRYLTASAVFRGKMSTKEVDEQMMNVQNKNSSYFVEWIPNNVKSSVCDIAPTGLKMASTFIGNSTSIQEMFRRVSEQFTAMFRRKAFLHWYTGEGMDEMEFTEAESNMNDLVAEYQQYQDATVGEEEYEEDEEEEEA

Row | effect of a mutation on the interaction | Variant
1 | disrupting interaction | MATIRNLKIKTSTCKRIVKELHSAEKEVEREAAKTADMKDKGADPYDLKQQENVLGESRMMIPDCHKRLESALADLKSTLAELEETDEKEGPEIEDAKKTVADVEKQFPTEDA [Y24A]

Variants of: B1
Conditions: with tbb9_arath TUBB9, P29517
Remark: another data set of the same source

Row | effect of a mutation on the interaction | Variant
2 | disrupting interaction | MATIRNLKIKTSTCKRIVKALHSYEKEVEREAAKTADMKDKGADPYDLKQQENVLGESRMMIPDCHKRLESALADLKSTLAELEETDEKEGPEIEDAKKTVADVEKQFPTEDA [E20A]

Variants of: B1
Conditions: with tbb9_arath TUBB9, P29517
Remark: another data set of the same source

Row | effect of a mutation on the interaction | Variant
3 | disrupting interaction | MATIRNLKIKTSTCKRIVKELHSYEKEVEREAAKTADMKDKGADPYDLKQQENVLGASRMMIPDCHKRLESALADLKSTLAELEETDEKEGPEIEDAKKTVADVEKQFPTEDA [E57A]
